What is called EC50 is the midpoint of the concentration-response curve.

The target in the test is T1, cynomolgus monkey FAPα on Expi293F cells (cynomolgus monkey (Macaca fascicularis), UniProt Q12884 1-760 (human entry)).
T1 sequence: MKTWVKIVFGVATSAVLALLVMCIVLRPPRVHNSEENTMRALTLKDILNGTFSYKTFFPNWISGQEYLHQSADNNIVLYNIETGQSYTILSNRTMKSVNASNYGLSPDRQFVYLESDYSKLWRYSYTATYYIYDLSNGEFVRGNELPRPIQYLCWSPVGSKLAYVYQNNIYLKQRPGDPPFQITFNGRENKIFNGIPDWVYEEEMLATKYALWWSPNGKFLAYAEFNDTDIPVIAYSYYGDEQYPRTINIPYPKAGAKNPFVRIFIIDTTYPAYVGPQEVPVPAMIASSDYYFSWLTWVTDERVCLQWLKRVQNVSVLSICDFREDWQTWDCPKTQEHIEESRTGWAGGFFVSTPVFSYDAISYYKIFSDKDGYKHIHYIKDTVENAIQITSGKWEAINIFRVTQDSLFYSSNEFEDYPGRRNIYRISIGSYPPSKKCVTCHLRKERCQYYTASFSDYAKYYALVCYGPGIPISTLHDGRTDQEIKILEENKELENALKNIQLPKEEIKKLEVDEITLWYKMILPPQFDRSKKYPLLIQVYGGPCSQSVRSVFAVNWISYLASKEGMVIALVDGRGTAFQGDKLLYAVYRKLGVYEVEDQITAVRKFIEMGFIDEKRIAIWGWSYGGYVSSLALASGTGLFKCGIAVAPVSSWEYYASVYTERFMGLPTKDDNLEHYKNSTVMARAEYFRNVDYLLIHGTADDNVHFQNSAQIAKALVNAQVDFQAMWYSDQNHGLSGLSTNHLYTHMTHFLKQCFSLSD
Briefly: flow cytometry, Expi293F cells expressing cynomolgus monkey FAPα, n = 3. How it is done: Binding of BisG1-FAPα-FERL/DR4-FERR, BisG1-FAPα-FEAL/b12-FEAR and IgG1-FAPα-FERL to FAPα of species commonly used for nonclinical toxicology studies was assessed by flow cytometry using Expi293F cells transiently expressing FAPα from different animal species. IgG1-b12 was included as negative control.
Expi293F cells expressing recombinant FAPα from various species (human, cynomolgus monkey, dog, pig, rat or mouse) were seeded (20,000 cells/well) in 96-Well round bottom plates (Greiner Bio-one, Cat #650101). Antibody dilutions were prepared using FACS buffer, consisting of PBS (Capricorn Scientific, Cat #PBS-10XA, diluted to 1×PBS in distilled water)+1% BSA (Roche, Cat #10735086001)+0.02% Sodium Azide (Bio-World, Cat #41920044-3). Plates were centrifuged, supernatant was removed, and cells were resuspended in 100 μL of antibody dilutions (concentration range 30-0.00017 μg/mL with three-fold serial dilutions using FACS buffer) of BisG1-FAPα-FERL/DR4-FERR, BisG1-FAPα-FEAL/b12-FEAR, IgG1-FAPα-FERL and IgG1-b12 and incubated for 30 min at 4° C. […] After 30 min incubation at 4° C., cells were washed with FACS buffer and resuspended in FACS buffer supplemented with TO-PRO-3 Iodide viability marker (Invitrogen, Cat #T3605, diluted 1:4,000). Antibody binding to viable cells (gMFI of PE on TO-PRO-3 negative cells) was analyzed by flow cytometry on a FACS Celesta and FACS_Diva software (first two experiments) or iQue® 3 and FlowJo software (last experiment). gMFI was determined and visualized using GraphPad Prism. Binding curves were analyzed using nonlinear regression analysis. The concentration (pg/mL) at which 50% of the maximal effect was observed (EC₅₀) was derived from the fitted curves.
In general terms: Flow cytometry measures light scatter and fluorescence of single cells or particles in a stream.

B1: BisG1-FAPα-FERL/DR4-FERR (bispecific antibody, human IgG1, kappa, lambda)
heavy 1: EVQLLESGGGLVQPGGSPRLSCEASGFTFSSYALSWVRQAPGKGLEWVSAISGSGGGRYYADSVKGRFTISRDNSKNTLFLQMNSLRAEDTAVYYCAKEGYSSSGTYWDHWGQGTLVTVSSASTKGPSVFPLAPSSKSTSGGTAALGCLVKDYFPEPVTVSWNSGALTSGVHTFPAVLQSSGLYSLSSVVTVPSSSLGTQTYICNVNHKPSNTKVDKRVEPKSCDKTHTCPPCPAPEFERGPSVFLFPPKPKDTLMISRTPEVTCVVVDVSHEDPEVKFNWYVDGVEVHNAKTKPREEQYNSTYRVVSVLTVLHQDWLNGKEYKCKVSNKALPAPIEKTISKAKGQPREPQVYTLPPSREEMTKNQVSLTCLVKGFYPSDIAVEWESNGQPENNYKTTPPVLDSDGSFLLYSKLTVDKSRWQQGNVFSCSVMHEALHNHYTQKSLSLSPG
light 1: AIQMTQSPSSVSASVGDRVTITCRASQGVSSWLAWYQQKPGRAPKLLIYVASTLQSGVPSRFSGSGSGTDFTLTINSLQPEDFATYYCQQANSFPPTFGQGTRLEMKRTVAAPSVFIFPPSDEQLKSGTASVVCLLNNFYPREAKVQWKVDNALQSGNSQESVTEQDSKDSTYSLSSTLTLSKADYEKHKVYACEVTHQGLSSPVTKSFNRGEC
heavy 2: QVQLQESGPGLVKPSGTLSLTCAVSGGSISSYSWWSWIRQPPGKGLEWIGELYHSGSTNYNPSLKSRVTISVDKSKNQFSLKLRSVTAADTAVYYCVRGVATIDYWGQGTLVTVSSASTKGPSVFPLAPSSKSTSGGTAALGCLVKDYFPEPVTVSWNSGALTSGVHTFPAVLQSSGLYSLSSVVTVPSSSLGTQTYICNVNHKPSNTKVDKRVEPKSCDKTHTCPPCPAPEFERGPSVFLFPPKPKDTLMISRTPEVTCVVVDVSHEDPEVKFNWYVDGVEVHNAKTKPREEQYNSTYRVVSVLTVLHQDWLNGKEYKCKVSNKALPAPIEKTISKAKGQPREPQVYTLPPSREEMTKNQVSLTCLVKGFYPSDIAVEWESNGQPENNYKTTPPVLDSDGSFFLYSRLTVDKSRWQQGNVFSCSVMHEALHNHYTQKSLSLSPG
light 2: QSALTQPPSASGSPGQSVTISCTGTSSDVGGYNFVSWYQQDPGKAPKLLIYEVTKRPSGVPDRFSGSKSGNTASLTVSGLQAEDEADYYCSSYAGSNNVMFGGGTKLTVLGQPKAAPSVTLFPPSSEELQANKATLVCLISDFYPGAVTVAWKADSSPVKAGVETTTPSKQSNNKYAASSYLSLTPEQWKSHRSYSCQVTHEGSTVEKTVAPTECS
notes: Human IgG1 bispecific made by controlled Fab-arm exchange of IgG1-FAPα-FERL and IgG1-DR4-FERR; monovalent for FAPα and for DR4; also called GEN1057
B1 displayed an EC50 of 0.16 µg/mL.

B2: IgG1-FAPα-FERL (antibody)
heavy: EVQLLESGGGLVQPGGSPRLSCEASGFTFSSYALSWVRQAPGKGLEWVSAISGSGGGRYYADSVKGRFTISRDNSKNTLFLQMNSLRAEDTAVYYCAKEGYSSSGTYWDHWGQGTLVTVSSASTKGPSVFPLAPSSKSTSGGTAALGCLVKDYFPEPVTVSWNSGALTSGVHTFPAVLQSSGLYSLSSVVTVPSSSLGTQTYICNVNHKPSNTKVDKRVEPKSCDKTHTCPPCPAPEFERGPSVFLFPPKPKDTLMISRTPEVTCVVVDVSHEDPEVKFNWYVDGVEVHNAKTKPREEQYNSTYRVVSVLTVLHQDWLNGKEYKCKVSNKALPAPIEKTISKAKGQPREPQVYTLPPSREEMTKNQVSLTCLVKGFYPSDIAVEWESNGQPENNYKTTPPVLDSDGSFLLYSKLTVDKSRWQQGNVFSCSVMHEALHNHYTQKSLSLSPG
light: AIQMTQSPSSVSASVGDRVTITCRASQGVSSWLAWYQQKPGRAPKLLIYVASTLQSGVPSRFSGSGSGTDFTLTINSLQPEDFATYYCQQANSFPPTFGQGTRLEMKRTVAAPSVFIFPPSDEQLKSGTASVVCLLNNFYPREAKVQWKVDNALQSGNSQESVTEQDSKDSTYSLSSTLTLSKADYEKHKVYACEVTHQGLSSPVTKSFNRGEC
notes: Bivalent monoclonal IgG1 kappa
The molecule B2 came in with an EC50 of 0.16 µg/mL.

B3: BisG1-FAPα-FEAL/b12-FEAR (bispecific antibody, human IgG1, kappa)
heavy 1: EVQLLESGGGLVQPGGSPRLSCEASGFTFSSYALSWVRQAPGKGLEWVSAISGSGGGRYYADSVKGRFTISRDNSKNTLFLQMNSLRAEDTAVYYCAKEGYSSSGTYWDHWGQGTLVTVSSASTKGPSVFPLAPSSKSTSGGTAALGCLVKDYFPEPVTVSWNSGALTSGVHTFPAVLQSSGLYSLSSVVTVPSSSLGTQTYICNVNHKPSNTKVDKRVEPKSCDKTHTCPPCPAPEFEGGPSVFLFPPKPKDTLMISRTPEVTCVVVAVSHEDPEVKFNWYVDGVEVHNAKTKPREEQYNSTYRVVSVLTVLHQDWLNGKEYKCKVSNKALPAPIEKTISKAKGQPREPQVYTLPPSREEMTKNQVSLTCLVKGFYPSDIAVEWESNGQPENNYKTTPPVLDSDGSFLLYSKLTVDKSRWQQGNVFSCSVMHEALHNHYTQKSLSLSPG
light 1: AIQMTQSPSSVSASVGDRVTITCRASQGVSSWLAWYQQKPGRAPKLLIYVASTLQSGVPSRFSGSGSGTDFTLTINSLQPEDFATYYCQQANSFPPTFGQGTRLEMKRTVAAPSVFIFPPSDEQLKSGTASVVCLLNNFYPREAKVQWKVDNALQSGNSQESVTEQDSKDSTYSLSSTLTLSKADYEKHKVYACEVTHQGLSSPVTKSFNRGEC
heavy 2: QVQLVQSGAEVKKPGASVKVSCQASGYRFSNFVIHWVRQAPGQRFEWMGWINPYNGNKEFSAKFQDRVTFTADTSANTAYMELRSLRSADTAVYYCARVGPYSWDDSPQDNYYMDVWGKGTTVIVSSASTKGPSVFPLAPSSKSTSGGTAALGCLVKDYFPEPVTVSWNSGALTSGVHTFPAVLQSSGLYSLSSVVTVPSSSLGTQTYICNVNHKPSNTKVDKRVEPKSCDKTHTCPPCPAPEFEGGPSVFLFPPKPKDTLMISRTPEVTCVVVAVSHEDPEVKFNWYVDGVEVHNAKTKPREEQYNSTYRVVSVLTVLHQDWLNGKEYKCKVSNKALPAPIEKTISKAKGQPREPQVYTLPPSREEMTKNQVSLTCLVKGFYPSDIAVEWESNGQPENNYKTTPPVLDSDGSFFLYSRLTVDKSRWQQGNVFSCSVMHEALHNHYTQKSLSLSPG
light 2: EIVLTQSPGTLSLSPGERATFSCRSSHSIRSRRVAWYQHKPGQAPRLVIHGVSNRASGISDRFSGSGSGTDFTLTITRVEPEDFALYYCQVYGASSYTFGQGTKLERKRTVAAPSVFIFPPSDEQLKSGTASVVCLLNNFYPREAKVQWKVDNALQSGNSQESVTEQDSKDSTYSLSSTLTLSKADYEKHKVYACEVTHQGLSSPVTKSFNRGEC
notes: Fab-arm exchange of IgG1-FAPα-FEAL and IgG1-b12-FEAR
Molecule B3 gave an EC50 of 0.35 µg/mL.

The values above are taken from US20250002610A1 (Genmab, published 2025).
